From patent US20130243775A1 come the findings set out here.

For this assay, the target named is interleukin-4 receptor (IL-4R) (UniProt P24394). The assay can be described thus: cell-based or functional assay.
Chain of UniProt P24394 (P24394 26-825 limits assumed): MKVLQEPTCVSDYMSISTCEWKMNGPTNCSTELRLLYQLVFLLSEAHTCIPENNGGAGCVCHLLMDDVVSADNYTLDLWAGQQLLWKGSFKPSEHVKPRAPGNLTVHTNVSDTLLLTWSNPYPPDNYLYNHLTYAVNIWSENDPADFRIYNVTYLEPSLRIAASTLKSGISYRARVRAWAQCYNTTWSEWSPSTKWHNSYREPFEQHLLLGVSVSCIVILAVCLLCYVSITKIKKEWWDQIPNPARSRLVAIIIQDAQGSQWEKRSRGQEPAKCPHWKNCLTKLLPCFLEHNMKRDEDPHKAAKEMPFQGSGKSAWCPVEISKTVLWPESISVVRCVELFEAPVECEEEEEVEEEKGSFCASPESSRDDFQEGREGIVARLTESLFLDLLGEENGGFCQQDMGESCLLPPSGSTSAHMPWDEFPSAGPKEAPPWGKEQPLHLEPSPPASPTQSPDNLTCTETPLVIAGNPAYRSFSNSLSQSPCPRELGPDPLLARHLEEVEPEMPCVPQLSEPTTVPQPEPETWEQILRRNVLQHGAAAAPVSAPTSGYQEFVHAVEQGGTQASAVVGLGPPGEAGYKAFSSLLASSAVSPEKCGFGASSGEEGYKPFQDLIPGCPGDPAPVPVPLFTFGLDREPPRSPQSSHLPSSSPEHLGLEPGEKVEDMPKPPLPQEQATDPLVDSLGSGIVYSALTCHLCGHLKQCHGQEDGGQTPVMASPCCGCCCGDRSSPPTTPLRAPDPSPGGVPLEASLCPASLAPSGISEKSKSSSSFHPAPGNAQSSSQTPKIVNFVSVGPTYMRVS

B1: anti-IL-4R:anti-CD63 conjugate (streptavidin-conjugated anti-IL-4R antibody combined 1:1 with biotinylated anti-CD63 antibody MEM-259) (protein, part only; not given: anti-CD63 antibody, constant regions, part only)
VH: EVQLVESGGGVVQPGRSLRLSCVASGFTFSDYGMHWVRQAPGKGLEWVAVIWYDGSIKYFRDSVKGRFTISRDNSKNTLYLQMNSLRVEDTAHYYCAKESSSWYFYHGLDVWGQGTMVTVSS
VL: EIVMTQSPLSLPVSPGEPASISCRSNQSLLHSNGNNYLAWYLQKPGQSPHLLIYLGSNRASGVPDRFSGSGSGTDFTLKISRVEAGDVGTYFCMQSLQAPPFTFGPGTKVEIKR
modifications: antibody is streptavidin-conjugated (site not stated)
For the molecule B1, the attenuation of IL-4R activity relative to the control constructs (STAT6-luciferase reporter) was above 10%.
